T1: recombinant, full-length TRP120 (rTRP120-FL) (Ehrlichia chaffeensis, UniProt Q2GI62 1-548)
T1 construct: Ehrlichia chaffeensis tandem repeat protein TRP120, full-length gene cloned upstream of a 6xHis tag; Thioredoxin fusion from the vector pBAD/Thio-TOPO; also called rTRP12-FL; source: E. coli TOP10, pBAD/Thio-TOPO, purified (His-tag purification resin); not shown: His6, C-terminal, kept
T1 sequence: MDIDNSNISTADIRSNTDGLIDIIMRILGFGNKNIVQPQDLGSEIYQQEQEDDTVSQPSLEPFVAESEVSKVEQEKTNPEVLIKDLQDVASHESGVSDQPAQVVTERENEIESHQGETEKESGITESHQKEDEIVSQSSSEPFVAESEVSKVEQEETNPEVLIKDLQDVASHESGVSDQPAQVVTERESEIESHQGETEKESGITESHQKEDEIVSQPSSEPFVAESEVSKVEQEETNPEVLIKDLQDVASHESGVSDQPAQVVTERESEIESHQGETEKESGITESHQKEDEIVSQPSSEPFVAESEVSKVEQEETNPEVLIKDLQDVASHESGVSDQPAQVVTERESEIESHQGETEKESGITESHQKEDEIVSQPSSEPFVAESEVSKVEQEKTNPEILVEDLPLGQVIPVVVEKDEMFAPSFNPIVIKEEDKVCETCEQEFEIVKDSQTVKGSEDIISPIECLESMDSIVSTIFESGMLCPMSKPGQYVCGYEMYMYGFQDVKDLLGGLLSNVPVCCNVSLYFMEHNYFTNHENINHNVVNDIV

B1: recombinant Fzd5 extracellular domain (rFzd5-ECD) (domain or fragment, UniProt Q13467 27-238, looked up)
chain: ASKAPVCQEITVPMCRGIGYNLTHMPNQFNHDTQDEAGLEVHQFWPLVEIQCSPDLRFFLCSMYTPICLPDYHKPLPPCRSVCERAKAGCSPLMRQYGFAWPERMSCDRLPVLGRDAEVLCMDYNRSEATTAPPRPFPAKPTLPGPPGAPASGGECPAGGPFVCKCREPFVPILKESHPLYNKVRTGQVPNCAVPCYQPSFSADERTFATFW
notes: Frizzled-5, recombinant extracellular domain (methods: 'cysteine-rich domain-truncated protein'); commercial Frizzled ECD proteins are often Fc chimeras and may be mouse (surmise); also called Fzd5-CRD; source: bought: R&D Systems

Experiments:
[1] = biological target: rTRP120-tandem repeat domain truncate construct (rTRP120-TRD) (Ehrlichia chaffeensis) (UniProt Q2GI62); experiment: SPR; His-tagged rTRP120-FL or rTRP120-TRD (0.1 µM) captured on Ni-NTA sensor chip; rFzd-ECD 0 to 1,600 nM flowed over; Biacore T100; 100 mM NaPO4 pH 7.4, 400 mM NaCl, 40 µM EDTA, 0.005% Tween 20; 1:1 fit
[2] = biological target: T1, recombinant, full-length TRP120 …; experiment: as above; details: both partners purified

Row | Molecule | Kd [1] [µM] | Kd [2] [µM]
1 | recombinant Fzd5 extracellular domain (rFzd5-ECD) (from UniProt Q13467 27-238) (domain or fragment) | 1.35 | –
2 | B1 | – | 46.3

Reference: PMC8546699, “Ehrlichia chaffeensis TRP120 Is a Wnt Ligand Mimetic That Interacts with Wnt Receptors and Contains a Novel Repetitive Short Linear Motif That Activates Wnt Signaling” (mSphere, 2021)
